Results on one substance are retold here after patent publication US20250332261A1.

The experiment addresses human epidermal growth factor receptor 1 (EGFR1) (human) (UniProt P00533). In words: tritium-labelled compound 5 µg/ml, 3 h +37 °C, FaDu cells, scintillation counting of lysate; internalized plus surface-bound; mean of three ± S.D.; negative control.

With “Control-mAb (omalizumab, anti-IgE) (antibody)”, the % internalized/100000 cells (% internalized/100000 cells) was 0.01.
